Experimental data reported in PMC7949025, “Biophysical characterization of the ETV6 PNT domain polymerization interfaces” (The Journal of Biological Chemistry, 2021).

Molecular target: T1, biotinylated V112E-PNT domain (ETV6 residues 43-135, V112E, with Avitag) (human, UniProt P41212 43-135, V112E, biotin on the Avitag (~50 to 95% biotinylated))
T1 construct: ETV6, human, residues 43-135 of V112E ETV6; also called biotinylated V112E-PNT domain ligand; V112E-PNT domain ligand; source: E. coli BL21 (λDE3) co-transformed with pET21a-BirA, purified (Ni-NTA, thrombin cleavage); not shown: His6, N-terminal, cleaved; Avitag, N-terminal, kept
T1 sequence (looked up): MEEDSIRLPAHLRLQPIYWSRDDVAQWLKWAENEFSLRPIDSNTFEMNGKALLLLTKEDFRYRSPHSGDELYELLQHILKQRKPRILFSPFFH
Test: SPR; biotinylated V112E-PNT domain ligand captured on streptavidin Sensor Chip SA, PNT domain analytes flowed; Biacore X100, 25 °C, HBS-EP+ (10 mM HEPES, 150 mM NaCl, 3 mM EDTA, 0.05% v/v Tween-20, pH 7.4); analyte 0.2-60 nM, re-run at 20-6000 nM if KD > 60 nM
Details: both partners purified
Method in brief: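 Biotinylated ETV6 PNT domain (residues 43-135, Avitag-biotinylated) was diluted to 50 μg/ml in HBS-EP+ and captured on a streptavidin Sensor Chip SA in a Biacore X100 at 25 °C. PNT domain analytes were flowed at 0.2, 2, 20, 40 and 60 nM, or re-run at 20-6000 nM when binding was weaker. Chips were regenerated with 0.2% SDS for 30 s. Association and dissociation rate constants and equilibrium dissociation constant came from the Biacore kinetics/affinity software wizard.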

| Binder | Kd | koff | kon |
| --- | --- | --- | --- |
| I48A-A93D-PNT domain (domain or fragment, human, UniProt P41212 40-125, looked up, ETV6 PNT domain, human; source: E. coli BL21 (λDE3), purified (Ni-NTA, thrombin cleavage); not shown: His6, N-terminal, cleaved) ALRMEEDSARLPAHLRLQPIYWSRDDVAQWLKWAENEFSLRPIDSNTFEMNGKDLLLLTKEDFRYRSPHSGDVLYELLQHILKQRK | 12 nM | 0.004 s⁻¹ | 340000 M⁻¹ s⁻¹ |
| P107A-A93D-PNT domain (domain or fragment, human, UniProt P41212 40-125, looked up, ETV6 PNT domain, human; source: E. coli BL21 (λDE3), purified (Ni-NTA, thrombin cleavage); not shown: His6, N-terminal, cleaved) ALRMEEDSIRLPAHLRLQPIYWSRDDVAQWLKWAENEFSLRPIDSNTFEMNGKDLLLLTKEDFRYRSAHSGDVLYELLQHILKQRK | 8.1 nM | 0.0021 s⁻¹ | 260000 M⁻¹ s⁻¹ |
| V112A-A93D-PNT domain (domain or fragment, human, UniProt P41212 40-125, looked up, ETV6 PNT domain, human; source: E. coli BL21 (λDE3), purified (Ni-NTA, thrombin cleavage); not shown: His6, N-terminal, cleaved) ALRMEEDSIRLPAHLRLQPIYWSRDDVAQWLKWAENEFSLRPIDSNTFEMNGKDLLLLTKEDFRYRSPHSGDALYELLQHILKQRK | 550 nM | 0.011 s⁻¹ | 20000 M⁻¹ s⁻¹ |
| R103A-A93D-PNT domain (domain or fragment, human, UniProt P41212 40-125, looked up, ETV6 PNT domain, human; source: E. coli BL21 (λDE3), purified (Ni-NTA, thrombin cleavage); not shown: His6, N-terminal, cleaved) ALRMEEDSIRLPAHLRLQPIYWSRDDVAQWLKWAENEFSLRPIDSNTFEMNGKDLLLLTKEDFAYRSPHSGDVLYELLQHILKQRK | 21 nM | 0.0054 s⁻¹ | 250000 M⁻¹ s⁻¹ |
| R80A-A93D-PNT domain (domain or fragment, human, UniProt P41212 40-125, looked up, ETV6 PNT domain, human; source: E. coli BL21 (λDE3), purified (Ni-NTA, thrombin cleavage); not shown: His6, N-terminal, cleaved) ALRMEEDSIRLPAHLRLQPIYWSRDDVAQWLKWAENEFSLAPIDSNTFEMNGKDLLLLTKEDFRYRSPHSGDVLYELLQHILKQRK | 32 nM | 0.0029 s⁻¹ | 91000 M⁻¹ s⁻¹ |
| D111A-A93D-PNT domain (domain or fragment, human, UniProt P41212 40-125, looked up, ETV6 PNT domain, human; source: E. coli BL21 (λDE3), purified (Ni-NTA, thrombin cleavage); not shown: His6, N-terminal, cleaved) ALRMEEDSIRLPAHLRLQPIYWSRDDVAQWLKWAENEFSLRPIDSNTFEMNGKDLLLLTKEDFRYRSPHSGAVLYELLQHILKQRK | 420 nM | 0.0014 s⁻¹ | 3300 M⁻¹ s⁻¹ |
| E76A-A93D-PNT domain (domain or fragment, human, UniProt P41212 40-125, looked up, ETV6 PNT domain, human; source: E. coli BL21 (λDE3), purified (Ni-NTA, thrombin cleavage); not shown: His6, N-terminal, cleaved) ALRMEEDSIRLPAHLRLQPIYWSRDDVAQWLKWAENAFSLRPIDSNTFEMNGKDLLLLTKEDFRYRSPHSGDVLYELLQHILKQRK | 9.9 nM | 0.0062 s⁻¹ | 620000 M⁻¹ s⁻¹ |
| L79A-A93D-PNT domain (domain or fragment, human, UniProt P41212 40-125, looked up, ETV6 PNT domain, human; source: E. coli BL21 (λDE3), purified (Ni-NTA, thrombin cleavage); not shown: His6, N-terminal, cleaved) ALRMEEDSIRLPAHLRLQPIYWSRDDVAQWLKWAENEFSARPIDSNTFEMNGKDLLLLTKEDFRYRSPHSGDVLYELLQHILKQRK | 200 nM | 0.0016 s⁻¹ | 8100 M⁻¹ s⁻¹ |
| S78A-A93D-PNT domain (domain or fragment, human, UniProt P41212 40-125, looked up, ETV6 PNT domain, human; source: E. coli BL21 (λDE3), purified (Ni-NTA, thrombin cleavage); not shown: His6, N-terminal, cleaved) ALRMEEDSIRLPAHLRLQPIYWSRDDVAQWLKWAENEFALRPIDSNTFEMNGKDLLLLTKEDFRYRSPHSGDVLYELLQHILKQRK | 3.3 nM | 0.0093 s⁻¹ | 2.8e+06 M⁻¹ s⁻¹ |
| E115A-A93D-PNT domain (domain or fragment, human, UniProt P41212 40-125, looked up, ETV6 PNT domain, human; source: E. coli BL21 (λDE3), purified (Ni-NTA, thrombin cleavage); not shown: His6, N-terminal, cleaved) ALRMEEDSIRLPAHLRLQPIYWSRDDVAQWLKWAENEFSLRPIDSNTFEMNGKDLLLLTKEDFRYRSPHSGDVLYALLQHILKQRK | 11 nM | 0.0025 s⁻¹ | 230000 M⁻¹ s⁻¹ |
| H119A-A93D-PNT domain (domain or fragment, human, UniProt P41212 40-125, looked up, ETV6 PNT domain, human; source: E. coli BL21 (λDE3), purified (Ni-NTA, thrombin cleavage); not shown: His6, N-terminal, cleaved) ALRMEEDSIRLPAHLRLQPIYWSRDDVAQWLKWAENEFSLRPIDSNTFEMNGKDLLLLTKEDFRYRSPHSGDVLYELLQAILKQRK | 13 nM | 0.0034 s⁻¹ | 270000 M⁻¹ s⁻¹ |
| S47A-A93D-PNT domain (domain or fragment, human, UniProt P41212 40-125, looked up, ETV6 PNT domain, human; source: E. coli BL21 (λDE3), purified (Ni-NTA, thrombin cleavage); not shown: His6, N-terminal, cleaved) ALRMEEDAIRLPAHLRLQPIYWSRDDVAQWLKWAENEFSLRPIDSNTFEMNGKDLLLLTKEDFRYRSPHSGDVLYELLQHILKQRK | 6.9 nM | 0.0014 s⁻¹ | 210000 M⁻¹ s⁻¹ |
| Y114A-A93D-PNT domain (domain or fragment, human, UniProt P41212 40-125, looked up, ETV6 PNT domain, human; source: E. coli BL21 (λDE3), purified (Ni-NTA, thrombin cleavage); not shown: His6, N-terminal, cleaved) ALRMEEDSIRLPAHLRLQPIYWSRDDVAQWLKWAENEFSLRPIDSNTFEMNGKDLLLLTKEDFRYRSPHSGDVLAELLQHILKQRK | 130 nM | 0.0045 s⁻¹ | 35000 M⁻¹ s⁻¹ |
| K99A-A93D-PNT domain (domain or fragment, human, UniProt P41212 40-125, looked up, ETV6 PNT domain, human; source: E. coli BL21 (λDE3), purified (Ni-NTA, thrombin cleavage); not shown: His6, N-terminal, cleaved) ALRMEEDSIRLPAHLRLQPIYWSRDDVAQWLKWAENEFSLRPIDSNTFEMNGKDLLLLTAEDFRYRSPHSGDVLYELLQHILKQRK | 930 nM | 0.0023 s⁻¹ | 2400 M⁻¹ s⁻¹ |
